{"source": "paper PMC2839002", "biological_target": "YFP-SmB′ (UniProt P14678)", "experiment": "co-IP"}
{"substance": "coilin, endogenous in HeLa (from UniProt P38432 1-576) (natural protein)", "values": [{"measurement": "fold coilin recovered with anti-GFP relative to NMS", "result": 4.5, "unit": "fold"}]}
